Experimental data from article PMC11790958.

Target: condensin I tetramer lacking NCAPG (CIΔG) (Homo sapiens, UniProt O95347;Q9NTJ3;Q15003;Q15021 1-1197;1-1288;1-741;1-1401)
Assay: EMSA; 2.5 mM Mg2+; EMSA: 50 nM DNA, 20 mM HEPES pH 8, 150 mM KCl, 2.5 mM MgCl2, 10% glycerol, 1 mM DTT, on ice 20 min; 2% agarose, 0.5x TB
Conditions: protein: recombinant; tags: Strep; copies: 1;1;1;1; label: 5' Cy5 on reverse strand (S2); blunt

Chain of condensin I tetramer lacking NCAPG (CIΔG) (O95347 whole entry, stated change not applied, chain 1 of 4): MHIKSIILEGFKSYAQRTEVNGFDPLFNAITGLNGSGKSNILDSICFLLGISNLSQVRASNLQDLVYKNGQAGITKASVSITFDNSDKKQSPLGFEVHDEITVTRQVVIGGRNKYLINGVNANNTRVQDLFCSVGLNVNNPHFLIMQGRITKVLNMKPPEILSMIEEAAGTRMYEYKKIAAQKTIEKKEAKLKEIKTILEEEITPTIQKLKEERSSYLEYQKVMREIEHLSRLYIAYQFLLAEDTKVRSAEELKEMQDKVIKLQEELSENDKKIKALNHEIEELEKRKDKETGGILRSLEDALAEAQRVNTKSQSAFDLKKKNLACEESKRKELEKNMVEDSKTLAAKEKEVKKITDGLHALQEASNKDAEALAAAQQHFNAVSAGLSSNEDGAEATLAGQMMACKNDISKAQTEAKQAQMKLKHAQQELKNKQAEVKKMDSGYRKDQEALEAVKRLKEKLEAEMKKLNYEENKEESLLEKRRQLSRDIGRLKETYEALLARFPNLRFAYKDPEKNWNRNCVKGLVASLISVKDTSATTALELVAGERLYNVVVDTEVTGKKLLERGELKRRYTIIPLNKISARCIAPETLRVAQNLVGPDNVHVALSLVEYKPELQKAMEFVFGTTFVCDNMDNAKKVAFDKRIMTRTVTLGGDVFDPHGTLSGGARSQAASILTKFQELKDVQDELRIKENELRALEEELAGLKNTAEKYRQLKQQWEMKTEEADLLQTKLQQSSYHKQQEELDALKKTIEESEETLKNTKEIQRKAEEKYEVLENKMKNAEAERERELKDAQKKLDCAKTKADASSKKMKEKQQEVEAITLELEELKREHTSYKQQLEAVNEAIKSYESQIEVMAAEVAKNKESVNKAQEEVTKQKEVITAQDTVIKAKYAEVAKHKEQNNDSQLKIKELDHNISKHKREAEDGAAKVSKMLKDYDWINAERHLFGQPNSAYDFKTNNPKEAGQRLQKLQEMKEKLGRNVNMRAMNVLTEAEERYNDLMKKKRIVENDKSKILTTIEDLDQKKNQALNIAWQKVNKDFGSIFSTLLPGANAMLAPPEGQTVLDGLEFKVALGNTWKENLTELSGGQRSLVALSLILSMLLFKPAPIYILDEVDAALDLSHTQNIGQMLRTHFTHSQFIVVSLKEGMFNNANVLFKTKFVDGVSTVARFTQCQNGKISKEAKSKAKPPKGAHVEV
Chain of condensin I tetramer lacking NCAPG (CIΔG) (Q9NTJ3 whole entry, stated change not applied, chain 2 of 4): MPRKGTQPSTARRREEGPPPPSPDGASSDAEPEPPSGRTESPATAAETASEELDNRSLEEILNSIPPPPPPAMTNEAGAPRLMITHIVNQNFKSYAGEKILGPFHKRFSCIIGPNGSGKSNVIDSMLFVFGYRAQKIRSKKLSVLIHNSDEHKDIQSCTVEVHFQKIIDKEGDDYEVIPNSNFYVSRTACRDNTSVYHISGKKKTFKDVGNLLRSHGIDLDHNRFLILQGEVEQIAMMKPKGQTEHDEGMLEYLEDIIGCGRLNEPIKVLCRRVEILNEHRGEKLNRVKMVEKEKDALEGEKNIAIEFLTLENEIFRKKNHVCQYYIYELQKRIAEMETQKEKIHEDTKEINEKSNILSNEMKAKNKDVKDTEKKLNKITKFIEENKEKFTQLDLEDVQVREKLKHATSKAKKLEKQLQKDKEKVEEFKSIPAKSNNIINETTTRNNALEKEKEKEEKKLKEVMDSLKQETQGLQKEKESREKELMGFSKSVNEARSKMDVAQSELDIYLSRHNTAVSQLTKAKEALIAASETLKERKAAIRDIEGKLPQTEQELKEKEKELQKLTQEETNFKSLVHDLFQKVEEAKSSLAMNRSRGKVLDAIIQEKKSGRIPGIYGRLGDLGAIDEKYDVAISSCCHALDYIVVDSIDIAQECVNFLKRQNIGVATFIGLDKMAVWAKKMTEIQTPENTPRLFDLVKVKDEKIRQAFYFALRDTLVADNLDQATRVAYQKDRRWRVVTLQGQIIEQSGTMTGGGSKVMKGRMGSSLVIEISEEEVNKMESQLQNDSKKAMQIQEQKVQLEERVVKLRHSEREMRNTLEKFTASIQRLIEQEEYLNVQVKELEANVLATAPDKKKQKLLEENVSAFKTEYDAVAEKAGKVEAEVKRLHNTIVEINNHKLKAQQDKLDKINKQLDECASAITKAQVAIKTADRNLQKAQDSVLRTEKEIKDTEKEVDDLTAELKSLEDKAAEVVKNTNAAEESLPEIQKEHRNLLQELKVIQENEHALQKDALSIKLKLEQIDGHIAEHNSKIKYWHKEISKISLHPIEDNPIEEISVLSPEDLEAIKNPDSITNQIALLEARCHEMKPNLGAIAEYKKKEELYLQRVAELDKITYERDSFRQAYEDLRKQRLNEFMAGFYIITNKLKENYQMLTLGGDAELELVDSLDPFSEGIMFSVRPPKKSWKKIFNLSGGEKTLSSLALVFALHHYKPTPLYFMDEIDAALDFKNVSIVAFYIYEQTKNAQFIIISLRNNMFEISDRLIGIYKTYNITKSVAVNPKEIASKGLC
Chain of condensin I tetramer lacking NCAPG (CIΔG) (Q15003 whole entry, stated change not applied, chain 3 of 4): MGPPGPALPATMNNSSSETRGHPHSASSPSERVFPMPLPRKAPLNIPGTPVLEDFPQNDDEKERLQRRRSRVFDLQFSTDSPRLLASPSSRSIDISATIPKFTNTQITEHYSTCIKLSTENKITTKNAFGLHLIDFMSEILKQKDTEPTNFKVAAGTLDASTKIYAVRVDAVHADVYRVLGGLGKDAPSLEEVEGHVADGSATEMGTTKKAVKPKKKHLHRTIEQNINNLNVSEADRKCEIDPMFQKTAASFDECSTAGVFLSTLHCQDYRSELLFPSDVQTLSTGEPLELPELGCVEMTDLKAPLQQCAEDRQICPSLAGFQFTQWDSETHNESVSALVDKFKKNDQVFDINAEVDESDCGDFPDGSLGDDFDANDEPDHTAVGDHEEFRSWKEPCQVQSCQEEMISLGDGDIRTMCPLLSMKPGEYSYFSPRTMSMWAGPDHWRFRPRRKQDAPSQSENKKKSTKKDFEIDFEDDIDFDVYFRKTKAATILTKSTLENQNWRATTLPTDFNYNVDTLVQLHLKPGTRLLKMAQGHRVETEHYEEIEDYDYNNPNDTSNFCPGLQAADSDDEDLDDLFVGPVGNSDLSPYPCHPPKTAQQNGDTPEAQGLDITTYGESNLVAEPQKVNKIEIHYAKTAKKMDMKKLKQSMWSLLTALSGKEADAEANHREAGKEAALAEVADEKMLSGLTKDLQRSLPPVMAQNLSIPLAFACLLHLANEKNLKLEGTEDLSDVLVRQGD
Chain of condensin I tetramer lacking NCAPG (CIΔG) (Q15021 whole entry, stated change not applied, chain 4 of 4): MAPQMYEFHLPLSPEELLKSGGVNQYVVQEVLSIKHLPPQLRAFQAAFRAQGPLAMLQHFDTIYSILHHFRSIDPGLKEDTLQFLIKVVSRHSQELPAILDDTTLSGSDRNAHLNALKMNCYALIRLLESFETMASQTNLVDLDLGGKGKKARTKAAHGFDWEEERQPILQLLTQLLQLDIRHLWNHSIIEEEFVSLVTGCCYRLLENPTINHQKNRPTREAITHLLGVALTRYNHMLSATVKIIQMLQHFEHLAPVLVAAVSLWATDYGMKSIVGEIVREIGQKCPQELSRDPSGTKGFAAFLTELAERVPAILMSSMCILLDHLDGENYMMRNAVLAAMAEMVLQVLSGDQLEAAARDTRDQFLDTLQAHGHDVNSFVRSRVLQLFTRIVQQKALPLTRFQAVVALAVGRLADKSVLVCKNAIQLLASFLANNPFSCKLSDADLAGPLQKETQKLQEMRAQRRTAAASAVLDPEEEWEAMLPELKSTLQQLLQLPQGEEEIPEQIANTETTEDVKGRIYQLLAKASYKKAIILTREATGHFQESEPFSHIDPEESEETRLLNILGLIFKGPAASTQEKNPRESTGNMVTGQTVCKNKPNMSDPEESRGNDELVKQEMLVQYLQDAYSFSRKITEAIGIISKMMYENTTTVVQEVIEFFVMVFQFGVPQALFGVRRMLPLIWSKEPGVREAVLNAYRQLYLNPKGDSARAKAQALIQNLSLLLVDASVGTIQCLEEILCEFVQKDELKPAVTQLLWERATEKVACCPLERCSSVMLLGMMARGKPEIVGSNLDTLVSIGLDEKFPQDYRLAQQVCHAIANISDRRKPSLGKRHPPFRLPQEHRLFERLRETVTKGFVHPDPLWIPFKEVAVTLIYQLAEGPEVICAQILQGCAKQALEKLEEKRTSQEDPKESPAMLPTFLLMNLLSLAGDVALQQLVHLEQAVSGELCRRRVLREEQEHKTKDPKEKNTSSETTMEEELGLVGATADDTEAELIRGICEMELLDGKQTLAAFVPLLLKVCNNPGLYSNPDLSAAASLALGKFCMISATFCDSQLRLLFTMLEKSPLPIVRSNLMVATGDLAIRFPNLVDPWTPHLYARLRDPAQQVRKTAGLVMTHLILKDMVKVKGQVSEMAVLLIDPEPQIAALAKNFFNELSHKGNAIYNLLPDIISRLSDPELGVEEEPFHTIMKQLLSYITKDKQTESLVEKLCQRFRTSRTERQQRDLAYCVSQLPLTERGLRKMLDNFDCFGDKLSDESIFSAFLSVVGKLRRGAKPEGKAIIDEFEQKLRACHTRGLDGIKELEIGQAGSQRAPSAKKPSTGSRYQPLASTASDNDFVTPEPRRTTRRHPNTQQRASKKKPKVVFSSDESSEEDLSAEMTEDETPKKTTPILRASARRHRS

B1: Cy5 50 bp dsDNA (dsDNA)
DNA 1: GGTGTGACAGGGTGTGACAGGGTGTGACAGGGTGTGACAGGGTGTGACAG
DNA 2: CTGTCACACCCTGTCACACCCTGTCACACCCTGTCACACCCTGTCACACC
binding signal: ~4 fold lower affinity than CI
